Experimental data reported in the supplement of paper PMC9116672.
± gives the standard deviation of the averaged measurements or the uncertainty stated by the source.

Key:
[1] = duplex formation entropy ΔS (Van't Hoff fit of HRM Tm); higher = smaller entropy loss on duplex formation; conditions: temperature for dG: 50 °C, NaCl: 500 mM (unadjusted)
Summary of the method: (§1)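 DNA duplexes with phosphodiester or phosphorothioate strands (the latter mixed Rp/Sp) were annealed 1:1 and melted at 1–20 μM, with four replicate samples. Melting was in 1× NNE buffer (500 mM NaCl, pH 7.0) with 1× EvaGreen on a LightCycler96 (37 to 97°C, 0.1°C/s). Enthalpy and entropy come from a linear Van't Hoff regression of 1/Tm (Tm: peak of -dF/dT) against ln(CT/4), and free energy is extrapolated to 50°C. Values are not salt-adjusted, and errors are fit standard deviations.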

[2] = duplex melting temperature (HRM, EvaGreen); higher = more stable duplex
Summary of the method: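 Complementary DNA strands (phosphodiester or phosphorothioate, Rp/Sp mixtures) were annealed 1:1 at 25 μM, then diluted to 1–20 μM duplex in NNE buffer (500 mM NaCl, pH 7.0) with 1× EvaGreen. A LightCycler96 read fluorescence (470/514 nm) while heating from 37°C to 97°C at 0.1°C/s. Melting temperature was the peak of the negative dF/dT curve from the instrument software. Four replicates were prepared; those lacking a clear peak were excluded and the rest averaged.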

[3] = duplex formation enthalpy ΔH (Van't Hoff fit of HRM Tm); higher = less exothermic duplex formation; conditions: temperature for dG: 50 °C, NaCl: 500 mM (unadjusted)
Summary of the method: as §1

[4] = duplex formation free energy ΔG50 (Van't Hoff fit of HRM Tm); higher = less stable duplex; conditions: temperature for dG: 50 °C, NaCl: 500 mM (unadjusted)
Summary of the method: as §1

[5] = backbone: PO-PO (both strands phosphodiester DNA)
[6] = backbone: PS-PO (listed strand fully phosphorothioate, complement phosphodiester)
[7] = backbone: PS-PS (both strands fully phosphorothioate)
[8] = duplex concentration 1 µM, backbone: PS-PO (listed strand fully phosphorothioate, complement phosphodiester)
[9] = duplex concentration 1 µM, backbone: PS-PS (both strands fully phosphorothioate)
[10] = duplex concentration 2.5 µM, backbone: PO-PO (both strands phosphodiester DNA)
[11] = duplex concentration 2.5 µM, backbone: PS-PO (listed strand fully phosphorothioate, complement phosphodiester)
[12] = duplex concentration 2.5 µM, backbone: PS-PS (both strands fully phosphorothioate)
[13] = duplex concentration 5 µM, backbone: PO-PO (both strands phosphodiester DNA)
[14] = duplex concentration 5 µM, backbone: PS-PO (listed strand fully phosphorothioate, complement phosphodiester)
[15] = duplex concentration 5 µM, backbone: PS-PS (both strands fully phosphorothioate)
[16] = duplex concentration 7.5 µM, backbone: PO-PO (both strands phosphodiester DNA)
[17] = duplex concentration 7.5 µM, backbone: PS-PO (listed strand fully phosphorothioate, complement phosphodiester)
[18] = duplex concentration 7.5 µM, backbone: PS-PS (both strands fully phosphorothioate)
[19] = duplex concentration 10 µM, backbone: PO-PO (both strands phosphodiester DNA)
[20] = duplex concentration 10 µM, backbone: PS-PO (listed strand fully phosphorothioate, complement phosphodiester)
[21] = duplex concentration 10 µM, backbone: PS-PS (both strands fully phosphorothioate)
[22] = duplex concentration 15 µM, backbone: PO-PO (both strands phosphodiester DNA)
[23] = duplex concentration 15 µM, backbone: PS-PO (listed strand fully phosphorothioate, complement phosphodiester)
[24] = duplex concentration 15 µM, backbone: PS-PS (both strands fully phosphorothioate)
[25] = duplex concentration 20 µM, backbone: PO-PO (both strands phosphodiester DNA)
[26] = duplex concentration 20 µM, backbone: PS-PO (listed strand fully phosphorothioate, complement phosphodiester)
[27] = duplex concentration 20 µM, backbone: PS-PS (both strands fully phosphorothioate)
[28] = duplex concentration 1 µM, backbone: PO-PO (both strands phosphodiester DNA)

Row | Sequence | duplex formation entropy ΔS [1, 5] [cal/mol/K] | duplex formation entropy ΔS [1, 6] [cal/mol/K] | duplex formation entropy ΔS [1, 7] [cal/mol/K] | duplex melting temperature [2, 8] [°C] | duplex melting temperature [2, 9] [°C] | duplex melting temperature [2, 10] [°C] | duplex melting temperature [2, 11] [°C] | duplex melting temperature [2, 12] [°C] | duplex melting temperature [2, 13] [°C] | duplex melting temperature [2, 14] [°C] | duplex melting temperature [2, 15] [°C] | duplex melting temperature [2, 16] [°C] | duplex melting temperature [2, 17] [°C] | duplex melting temperature [2, 18] [°C] | duplex melting temperature [2, 19] [°C] | duplex melting temperature [2, 20] [°C] | duplex melting temperature [2, 21] [°C] | duplex melting temperature [2, 22] [°C] | duplex melting temperature [2, 23] [°C] | duplex melting temperature [2, 24] [°C] | duplex melting temperature [2, 25] [°C] | duplex melting temperature [2, 26] [°C] | duplex melting temperature [2, 27] [°C] | duplex formation enthalpy ΔH [3, 5] [kcal/mol] | duplex formation enthalpy ΔH [3, 6] [kcal/mol] | duplex formation enthalpy ΔH [3, 7] [kcal/mol] | duplex formation free energy ΔG50 [4, 5] [kcal/mol] | duplex formation free energy ΔG50 [4, 6] [kcal/mol] | duplex formation free energy ΔG50 [4, 7] [kcal/mol] | duplex melting temperature [2, 28] [°C]
1 | CTCGGAGGCCCCATTTA | -172 ± 7.8 | -167 ± 3.5 | -194 ± 6.1 | 60.53 ± 0.43 | 56.27 ± 0.32 | 69.45 ± 0.55 | 63.65 ± 0.44 | 59.31 ± 0.12 | 72.34 ± 0.17 | 66.33 ± 0.23 | 61.51 ± 0.1 | 73.72 ± 0.22 | 67.63 ± 0.23 | 62.63 ± 0.089 | 74.68 ± 0.39 | 68.67 ± 0.14 | 63.34 ± 0.086 | 76.04 ± 0.34 | 69.97 ± 0.17 | 64.55 ± 0.08 | 76.97 ± 0.28 | 70.91 ± 0.14 | 65.31 ± 0.13 | -68.7 ± 2.7 | -66 ± 1.2 | -73.9 ± 2 | -13.2 ± 0.19 | -11.87 ± 0.061 | -11.22 ± 0.074 | 
2 | GAGGCAGCCGCGACCTG |  | -199 ± 10 | -198 ± 4 |  | 63.68 ± 0.2 | 79.56 ± 0.14 | 72.02 ± 0.12 | 66.28 ± 0.29 | 81.39 ± 0.49 | 74.37 ± 0.34 | 68.52 ± 0.17 | 82.28 ± 0.58 | 75.9 ± 0.24 | 69.83 ± 0.094 | 82.97 ± 0.38 | 76.878 ± 0.05 | 70.65 ± 0.094 | 83.76 ± 0.16 | 77.946 ± 0.052 | 71.79 ± 0.097 | 84.53 ± 0.52 | 78.61 ± 0.15 | 72.633 ± 0.05 |  | -78.6 ± 3.5 | -76.7 ± 1.4 |  | -14.3 ± 0.27 | -12.88 ± 0.078 | 
3 | GATGCCGCAGCGACCTG |  | -192 ± 5.9 | -202 ± 3.8 | 67.1 | 61.35 ± 0.33 | 76.6 ± 1.4 | 69.756 ± 0.045 | 64.23 ± 0.086 | 78.68 ± 0.64 | 72.16 ± 0.23 | 66.19 ± 0.1 | 80.46 ± 0.37 | 73.33 ± 0.28 | 67.4 ± 0.078 | 81.03 ± 0.31 | 74.43 ± 0.15 | 68.25 ± 0.097 | 82.09 ± 0.41 | 75.63 ± 0.13 | 69.34 ± 0.12 | 82.88 ± 0.26 | 76.48 ± 0.17 | 70.24 ± 0.13 |  | -75.7 ± 2.1 | -77.6 ± 1.3 |  | -13.6 ± 0.14 | -12.42 ± 0.065 | 
4 | CGATTTTGTCAAGCCT |  | -197 ± 8.1 | -179 ± 5.5 | 52.6 | 45 ± 0.64 | 64.84 ± 0.3 | 55.56 ± 0.073 | 48.27 ± 0.26 | 66.53 ± 0.27 | 57.82 ± 0.17 | 50.1 ± 0.15 | 67.75 ± 0.37 | 58.86 ± 0.14 | 51.53 ± 0.24 | 68.64 ± 0.33 | 59.74 ± 0.12 | 52.43 ± 0.088 | 70.02 ± 0.072 | 60.94 ± 0.033 | 53.55 ± 0.096 | 70.68 ± 0.17 | 61.81 ± 0.11 | 54.55 ± 0.15 |  | -74 ± 2.7 | -66.5 ± 1.8 |  | -10.45 ± 0.08 | -8.766 ± 0.018 | 64.1
5 | TCTACACCGCGA | -135 ± 12 | -114 ± 9.5 | -111 ± 8.4 |  | 41.3 ± 0.82 |  |  | 45.5 ± 0.56 | 62.45 ± 0.36 | 57 | 48.18 ± 0.13 | 64.36 ± 0.22 | 58.2 ± 0.61 | 49.78 ± 0.41 | 65.78 ± 0.25 | 60.1 ± 0.43 | 52 ± 0.91 | 67.547 ± 0.058 | 61.71 ± 0.24 | 54.2 ± 1.4 | 68.14 ± 0.13 | 63.08 ± 0.18 |  | -54.3 ± 4.1 | -46.4 ± 3.2 | -44.4 ± 2.7 | -10.8 ± 0.19 | -9.65 ± 0.1 | -8.523 ± 0.038 | 
6 | CCGCTCAGAGTAGAGA | -187 ± 3.2 | -193 ± 3.2 | -183 ± 8 | 56.777 ± 0.05 | 49.2 ± 0.5 | 65.47 ± 0.19 | 59.67 ± 0.14 | 52.58 ± 0.28 | 67.54 ± 0.15 | 61.84 ± 0.13 | 54.81 ± 0.14 | 68.92 ± 0.084 | 63.04 ± 0.11 | 55.91 ± 0.17 | 69.87 ± 0.13 | 63.88 ± 0.14 | 56.68 ± 0.077 | 71.25 ± 0.081 | 65.05 ± 0.1 | 57.72 ± 0.067 | 72.15 ± 0.098 | 65.94 ± 0.14 | 58.67 ± 0.3 | -72.8 ± 1.1 | -73.5 ± 1.1 | -68.9 ± 2.6 | -12.5 ± 0.059 | -11.31 ± 0.042 | -9.673 ± 0.048 | 62.75 ± 0.41
7 | CTAAACTGTTATAGCCGG | -219 ± 24 | -205 ± 9.7 | -166 ± 7.6 |  | 46.18 ± 0.36 | 66.43 ± 0.32 | 58.77 ± 0.43 | 48.97 ± 0.4 | 67.83 ± 0.25 | 60.28 ± 0.38 | 51.09 ± 0.26 | 68.83 ± 0.28 | 61.66 ± 0.5 | 52.63 ± 0.18 | 70.13 ± 0.37 | 62.55 ± 0.4 | 53.4 ± 0.36 | 71.19 ± 0.13 | 63.71 ± 0.22 | 55.1 ± 0.25 | 72.08 ± 0.077 | 64.43 ± 0.18 | 56.27 ± 0.23 | -83.8 ± 8.2 | -77.5 ± 3.3 | -62.5 ± 2.5 | -13.2 ± 0.46 | -11.2 ± 0.12 | -8.979 ± 0.029 | 
8 | GCCCGAGCATGACTGCG | -255 ± 13 | -217 ± 5.5 | -231 ± 7.1 | 65.4 ± 0.24 | 59.02 ± 0.17 | 75.41 ± 0.19 | 68.14 ± 0.36 | 61.59 ± 0.3 | 76.97 ± 0.085 | 70 ± 0.11 | 63.37 ± 0.21 | 77.92 ± 0.1 | 71.104 ± 0.068 | 64.41 ± 0.16 | 78.54 ± 0.1 | 71.926 ± 0.031 | 65.09 ± 0.084 | 79.72 ± 0.12 | 73.02 ± 0.13 | 66.12 ± 0.12 | 80.63 ± 0.26 | 73.82 ± 0.14 | 66.8 ± 0.27 | -98.8 ± 4.5 | -83.7 ± 1.9 | -86.9 ± 2.4 | -16.3 ± 0.36 | -13.6 ± 0.11 | -12.16 ± 0.1 | 
9 | GCTGTGAAACAATGTAG | -217 ± 10 | -211 ± 5.7 | -231 ± 7.8 | 52.85 ± 0.06 | 43.66 ± 0.19 | 62.76 ± 0.31 | 55.41 ± 0.29 | 45.72 ± 0.19 | 64.54 ± 0.42 | 57.39 ± 0.24 | 47.54 ± 0.13 | 65.61 ± 0.42 | 58.44 ± 0.21 | 48.34 ± 0.13 | 66.58 ± 0.4 | 59.19 ± 0.24 | 49.09 ± 0.059 | 67.8 ± 0.33 | 60.21 ± 0.11 | 50.25 ± 0.24 | 68.65 ± 0.32 | 61.12 ± 0.092 | 51.09 ± 0.3 | -82.5 ± 3.5 | -78.8 ± 1.9 | -82.8 ± 2.5 | -12.3 ± 0.16 | -10.46 ± 0.049 | -8.078 ± 0.024 | 60.4 ± 1.3
